{"source": "patent US20120121557A1", "target": "ErbB4 on primary adult rat ventricular cardiomyocytes (rat) (UniProt Q62956)", "sequence (Q62956 26-1308)": "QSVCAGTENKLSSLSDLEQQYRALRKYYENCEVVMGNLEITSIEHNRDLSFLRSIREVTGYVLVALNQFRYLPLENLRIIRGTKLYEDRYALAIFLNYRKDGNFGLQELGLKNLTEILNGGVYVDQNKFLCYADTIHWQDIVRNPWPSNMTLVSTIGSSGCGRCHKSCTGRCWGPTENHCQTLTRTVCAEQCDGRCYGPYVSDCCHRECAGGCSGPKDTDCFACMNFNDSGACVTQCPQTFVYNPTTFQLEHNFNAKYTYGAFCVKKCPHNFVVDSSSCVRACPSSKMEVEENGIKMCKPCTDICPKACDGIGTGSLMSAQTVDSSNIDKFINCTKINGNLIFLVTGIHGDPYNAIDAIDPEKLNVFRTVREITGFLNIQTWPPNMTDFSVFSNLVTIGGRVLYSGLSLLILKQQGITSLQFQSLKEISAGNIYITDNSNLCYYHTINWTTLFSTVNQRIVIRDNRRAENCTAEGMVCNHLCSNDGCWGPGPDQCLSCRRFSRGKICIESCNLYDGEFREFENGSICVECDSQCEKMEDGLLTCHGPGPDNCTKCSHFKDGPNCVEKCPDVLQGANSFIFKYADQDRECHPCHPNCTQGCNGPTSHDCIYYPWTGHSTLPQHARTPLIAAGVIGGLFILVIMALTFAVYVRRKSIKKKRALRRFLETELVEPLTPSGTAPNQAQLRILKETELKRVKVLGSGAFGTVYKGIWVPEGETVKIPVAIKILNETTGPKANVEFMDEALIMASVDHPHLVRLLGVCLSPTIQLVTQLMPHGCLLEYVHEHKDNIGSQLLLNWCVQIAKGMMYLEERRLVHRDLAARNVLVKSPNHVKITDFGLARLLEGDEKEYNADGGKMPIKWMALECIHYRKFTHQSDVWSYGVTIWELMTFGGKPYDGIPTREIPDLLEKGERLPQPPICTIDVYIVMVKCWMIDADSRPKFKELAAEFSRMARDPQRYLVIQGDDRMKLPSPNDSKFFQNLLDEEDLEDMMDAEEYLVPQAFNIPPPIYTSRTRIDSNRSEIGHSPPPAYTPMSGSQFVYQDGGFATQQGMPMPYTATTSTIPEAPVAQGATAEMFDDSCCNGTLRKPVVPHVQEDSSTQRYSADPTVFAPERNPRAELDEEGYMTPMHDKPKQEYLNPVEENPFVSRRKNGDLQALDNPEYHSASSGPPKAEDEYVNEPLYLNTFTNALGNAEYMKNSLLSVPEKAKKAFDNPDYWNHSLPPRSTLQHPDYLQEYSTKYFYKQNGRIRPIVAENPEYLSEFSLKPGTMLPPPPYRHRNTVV", "assay": "cell-based or functional assay"}
{"substance": "NRG1 (EGF-like domain, amino acids 176-246), R&D Systems (from UniProt Q02297-11 121-191) (ligand)", "values": [{"measurement": "half-maximal stimulation EC50 of NRG1-induced DNA synthesis (BrdU uptake) in primary adult rat ventricular cardiomyocytes", "value": 0.04, "unit": "nM"}]}
